Assay results reported in article PMC3229523, “Identification of Lactoferricin B Intracellular Targets Using an Escherichia coli Proteome Chip” (PLoS ONE, 2011).
Ends that are not written are not given here. * marks the point of attachment. Biotin = O=C1N[C@H]2[C@H](CS[C@H]2CCCCC(=O)*)N1

Columns and labels:
Experiment in all cases: peptide or protein array; E. coli proteome chip: purified His-tagged proteins printed in duplicate on Fullmoon slides, blocked with 1% BSA; 10 nM N-terminal biotinylated LfcinB with 1% BSA, room temperature, 1 h; detected with DyLight 649-labeled streptavidin, ratio to DyLight 549-labeled anti-His antibody; ProCAT normalisation, local cut-off; triplicate chips
Conditions in all cases: both partners purified
FlgC = target: T1, FlgC (E. coli K-12, UniProt P0ABX2 1-134)
T1 construct: FlgC, E. coli K-12
T1 sequence (looked up): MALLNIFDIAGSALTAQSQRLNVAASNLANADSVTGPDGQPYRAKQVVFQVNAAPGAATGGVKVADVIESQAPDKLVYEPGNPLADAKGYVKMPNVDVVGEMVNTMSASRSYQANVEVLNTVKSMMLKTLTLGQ

WcaL = target: T2, WcaL (E. coli K-12, UniProt P71243 1-406)
T2 construct: WcaL, E. coli K-12
T2 sequence (looked up): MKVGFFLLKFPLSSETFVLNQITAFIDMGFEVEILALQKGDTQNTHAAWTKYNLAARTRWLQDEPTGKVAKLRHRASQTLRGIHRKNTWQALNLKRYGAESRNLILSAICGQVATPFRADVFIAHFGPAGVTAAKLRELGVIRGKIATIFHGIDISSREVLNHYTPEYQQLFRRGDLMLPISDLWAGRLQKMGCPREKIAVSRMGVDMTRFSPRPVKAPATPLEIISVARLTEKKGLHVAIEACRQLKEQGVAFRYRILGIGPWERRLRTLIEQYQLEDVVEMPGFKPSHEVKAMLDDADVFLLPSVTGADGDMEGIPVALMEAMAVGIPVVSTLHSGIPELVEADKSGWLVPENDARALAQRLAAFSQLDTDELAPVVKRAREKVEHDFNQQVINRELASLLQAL

SoxS = target: T3, SoxS (E. coli K-12, UniProt P0A9E2 1-107)
T3 construct: SoxS, E. coli K-12
T3 sequence (looked up): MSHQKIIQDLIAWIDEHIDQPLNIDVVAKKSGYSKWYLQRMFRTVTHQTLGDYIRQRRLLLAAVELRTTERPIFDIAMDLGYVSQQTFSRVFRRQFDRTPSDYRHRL

RhaR = target: T4, RhaR (E. coli K-12, UniProt P09378 1-282)
T4 construct: RhaR, E. coli K-12
T4 sequence (looked up): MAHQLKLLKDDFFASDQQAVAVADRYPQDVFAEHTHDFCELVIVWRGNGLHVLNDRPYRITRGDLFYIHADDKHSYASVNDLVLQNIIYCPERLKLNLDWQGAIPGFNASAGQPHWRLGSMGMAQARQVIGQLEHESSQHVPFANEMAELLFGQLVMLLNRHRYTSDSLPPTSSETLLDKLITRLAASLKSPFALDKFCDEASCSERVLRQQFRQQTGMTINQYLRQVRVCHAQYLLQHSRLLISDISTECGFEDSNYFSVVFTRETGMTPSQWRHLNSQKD

HyaF = target: T5, HyaF (E. coli K-12, UniProt P19932 1-285)
T5 construct: HyaF, E. coli K-12
T5 sequence (looked up): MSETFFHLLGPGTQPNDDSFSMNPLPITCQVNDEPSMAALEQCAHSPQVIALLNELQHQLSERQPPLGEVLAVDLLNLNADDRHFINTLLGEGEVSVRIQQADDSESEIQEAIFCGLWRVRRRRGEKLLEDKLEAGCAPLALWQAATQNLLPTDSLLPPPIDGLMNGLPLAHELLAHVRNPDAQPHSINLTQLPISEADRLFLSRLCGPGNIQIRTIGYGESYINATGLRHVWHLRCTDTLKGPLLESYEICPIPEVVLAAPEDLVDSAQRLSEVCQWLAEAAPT

RcsB = target: T6, RcsB (E. coli K-12, UniProt P0DMC7 1-216)
T6 construct: RcsB, E. coli K-12
T6 sequence (looked up): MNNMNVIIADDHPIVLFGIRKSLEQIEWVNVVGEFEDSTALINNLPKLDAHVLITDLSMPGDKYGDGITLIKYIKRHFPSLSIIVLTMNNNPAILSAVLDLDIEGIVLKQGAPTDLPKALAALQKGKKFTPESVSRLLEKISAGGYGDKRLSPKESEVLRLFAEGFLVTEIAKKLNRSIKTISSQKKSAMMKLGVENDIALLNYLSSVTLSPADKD

Hha = target: T7, Hha (E. coli K-12, UniProt P0ACE3 1-72)
T7 construct: Hha, E. coli K-12
T7 sequence (looked up): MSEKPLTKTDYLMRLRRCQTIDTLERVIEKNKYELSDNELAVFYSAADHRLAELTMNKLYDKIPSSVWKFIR

Measured: binding result

B1: N-terminal biotinylated Lactoferricin B (peptide, UniProt P24627 36-60, looked up)
peptide: Biotin-FKCRRWQWRMKKLGAPSITCVRRAF
modifications: ends and bridges not checked
notes: lactoferricin B (LfcinB), cationic antimicrobial peptide of 25 amino acids; also called biotinylated LfcinB; biotin-labeled LfcinB; source: bought: Kelowna Inc
binds: all assays above
